From publication doi:10.1101/851261 (2019) come the findings set out here.

One assay has as its target T1, AjKissR1 (Apostichopus japonicus).
T1 chain: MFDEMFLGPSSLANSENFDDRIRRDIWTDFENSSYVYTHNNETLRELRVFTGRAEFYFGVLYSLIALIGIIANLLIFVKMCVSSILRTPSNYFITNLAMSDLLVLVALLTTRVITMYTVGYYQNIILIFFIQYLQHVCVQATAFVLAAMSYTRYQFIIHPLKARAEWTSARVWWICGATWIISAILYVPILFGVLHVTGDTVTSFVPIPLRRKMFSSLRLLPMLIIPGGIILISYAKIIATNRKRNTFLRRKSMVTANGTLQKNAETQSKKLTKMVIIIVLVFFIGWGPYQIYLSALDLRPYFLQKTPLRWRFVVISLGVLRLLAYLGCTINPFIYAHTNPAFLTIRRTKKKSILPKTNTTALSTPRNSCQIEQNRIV
Nature of the assay: FACS; competition with 1.0 uM FITC-AjKiss1a. Background: A flow cytometer gives signals particle by particle.

The target in another assay is T2, AjKissR2 (Apostichopus japonicus).
T2 chain: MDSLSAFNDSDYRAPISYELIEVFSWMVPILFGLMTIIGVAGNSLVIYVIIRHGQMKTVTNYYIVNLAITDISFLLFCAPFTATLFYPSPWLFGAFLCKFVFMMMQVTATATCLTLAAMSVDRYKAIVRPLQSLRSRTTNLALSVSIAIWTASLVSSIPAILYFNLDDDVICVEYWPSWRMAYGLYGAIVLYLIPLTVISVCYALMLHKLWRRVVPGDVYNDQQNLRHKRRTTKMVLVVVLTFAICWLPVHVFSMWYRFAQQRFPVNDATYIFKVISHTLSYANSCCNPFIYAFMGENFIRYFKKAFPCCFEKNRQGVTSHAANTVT
Put plainly: FACS; competition with 1.0 uM FITC-AjKiss1a.

Positions of bridges follow the written chain, without caps; N, C: chain ends. No end group written: not given here.

Usually IC50 stands for the point on the concentration scale where inhibition reaches its midpoint. Turning to AGSLDCLEASCEDVERRGRQPNRNAHYRTLPF-NH2 (disulfide 6-11 (inferred)) [AjKiss1a], the IC50 with AjKissR1 came out at 568 nM. This lies in the sub-micromolar range.
Consider SAVKNKNKSRARPPLLPF-NH2 [AjKiss1b], for which the IC50 with AjKissR2 was 1250 nM.
